Source: PMC5499601 (Nucleic Acids Research, 2017)
Positions count from the first letter of the chain named.

Assays:
Test in all cases: EMSA
[1] = biological target: T1, BsSpo0J E52R (UniProt P26497 1-282, E52R)
T1 sequence: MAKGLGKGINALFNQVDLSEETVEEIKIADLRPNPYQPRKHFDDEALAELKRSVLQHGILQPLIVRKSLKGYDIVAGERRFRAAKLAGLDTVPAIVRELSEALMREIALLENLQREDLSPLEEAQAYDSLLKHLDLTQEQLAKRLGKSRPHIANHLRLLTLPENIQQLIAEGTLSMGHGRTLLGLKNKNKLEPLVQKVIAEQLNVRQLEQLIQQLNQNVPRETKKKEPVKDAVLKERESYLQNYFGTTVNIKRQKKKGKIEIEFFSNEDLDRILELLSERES

[2] = biological target: T2, BsSpo0J Q61A (UniProt P26497 1-282, Q61A)
T2 sequence: T1 sequence with R52E, Q61A

[3] = biological target: T3, BsSpo0J R79A (UniProt P26497 1-282, R79A)
T3 sequence: T1 sequence with R52E, R79A

[4] = biological target: T4, BsSpo0J V75A (UniProt P26497 1-282, V75A)
T4 sequence: T1 sequence with R52E, V75A

[5] = biological target: T5, BsSpo0J R80A (UniProt P26497 1-282, R80A)
T5 sequence: T1 sequence with R52E, R80A

[6] = biological target: T6, BsSpo0J R39A (UniProt P26497 1-282, R39A)
T6 sequence: T1 sequence with R39A, R52E

[7] = biological target: T7, BsSpo0J R105A (UniProt P26497 1-282, R105A)
T7 sequence: T1 sequence with R52E, R105A

[8] = biological target: T8, BsSpo0J H57E (UniProt P26497 1-282, H57E)
T8 sequence: T1 sequence with R52E, H57E

[9] = biological target: T9, BsSpo0J WT (UniProt P26497 1-282)
T9 sequence: T1 sequence with R52E

Measured: binding result

B1: 39-bp parS (dsDNA)
DNA 1: CAGTTGAATCAGAATGTTCCACGTGAAACAAAGAAAAAA
DNA 2: TTTTTTCTTTGTTTCACGTGGAACATTCTGATTCAACTG
not listed: [9]
binds: all other assays above

B2: 24-bp parS (dsDNA)
DNA 1: AGAATGTTCCACGTGAAACAAAGA
DNA 2: TCTTTGTTTCACGTGGAACATTCT
binds: [9]
